Bridges are numbered along the chain shown (N, C = ends). The star is where a group is joined. Biotin = O=C1N[C@H]2[C@H](CS[C@H]2CCCCC(=O)*)N1

For assay [1], the target named is T1, hCCR2b (human, UniProt P41597 1-374).
T1 chain: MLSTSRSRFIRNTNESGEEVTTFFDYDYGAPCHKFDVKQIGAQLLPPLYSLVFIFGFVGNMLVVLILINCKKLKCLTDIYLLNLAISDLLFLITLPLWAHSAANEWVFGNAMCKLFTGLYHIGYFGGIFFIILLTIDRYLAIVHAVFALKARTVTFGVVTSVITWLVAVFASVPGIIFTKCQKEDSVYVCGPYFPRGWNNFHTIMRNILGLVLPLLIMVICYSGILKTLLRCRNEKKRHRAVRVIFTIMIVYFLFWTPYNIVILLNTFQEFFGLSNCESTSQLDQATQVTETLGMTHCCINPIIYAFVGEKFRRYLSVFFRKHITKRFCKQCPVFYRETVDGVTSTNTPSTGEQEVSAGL
Briefly: cell-based or functional assay.

Assay [2] addresses hCCR5 (human, UniProt P51681 1-352). Briefly: cell-based or functional assay.

Chain of hCCR5 (P51681 whole entry): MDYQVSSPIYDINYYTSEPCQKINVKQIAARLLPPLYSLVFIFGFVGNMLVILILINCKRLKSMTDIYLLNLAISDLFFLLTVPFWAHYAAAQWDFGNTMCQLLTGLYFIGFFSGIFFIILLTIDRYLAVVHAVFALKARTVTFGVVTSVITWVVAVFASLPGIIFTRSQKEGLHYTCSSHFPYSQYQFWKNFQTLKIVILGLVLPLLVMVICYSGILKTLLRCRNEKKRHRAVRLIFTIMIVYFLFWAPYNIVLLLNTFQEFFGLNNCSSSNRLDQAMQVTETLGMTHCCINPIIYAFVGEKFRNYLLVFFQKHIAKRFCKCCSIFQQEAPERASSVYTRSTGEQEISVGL

B1: recombinant native MCP-2 (ligand, human, UniProt P80075 24-99, looked up)
chain: QPDSVSIPITCCFNVINRKIPIQRLESYTRITNIQCPKEAVIFKTKRGKEVCADPKERWVRDSMKHLDQIFQNLKP
B1: the “EC50, Aequorin assay (partial agonist)” value in assay [1] came to 23.5 nM.

B2: biotinRANTES (CCL5) (ligand)
chain: SPYSSDTTPCCFAYIARPLPRAHIKEYFYTSGKCSNPAVVFVTRKNRQVCANPEKKWVREYINSLEK(Biotin)S-OH
modifications: disulfide 10-34, 11-50; also: TFA salt
As for B2, in assay [2], the “EC50, agonist activity in an Aequorin assay” value is 0.5 nM.

The values are drawn from patent EP2718312B1 (TLA Targeted Immunotherapies AB, dated 2018).
